Entries after “also recorded” stand apart in the source; their conditions may differ.
What was measured:
3T3-L1 adipocytes [1] = assay: Fluorescent fatty acid uptake assay in 3T3-L1 adipocytes; format: cell-based, mouse
Procedure: Uptake of fatty acids by differentiated 3T3-L1 adipocytes or primary mouse adipocytes was assessed using a QBT Fatty Acid Uptake Kit (Molecular Devices). Cells were plated in triplicate in 96-well plates at a concentration of 25,000 cells per well in 100 μl of DMEM/10% FCS. Plates were centrifuged at 1000 rpm for 4 minutes and incubated at 37° Celsius for 4-5 hours. Cells were then serum deprived for 1 hour before treatment with recombinant proteins for 30 minutes followed by the addition of QBT Fatty Acid Uptake solution. […] Plates were incubated in a fluorescent plate reader at 37° Celsius and kinetic readings were acquired every 20 seconds for 30 minutes. Fluorescence values were plotted against time and data was expressed as relative fluorescent units per minutes×10^3. […]

Rictor at threonine 1135 = assay: Western blot, Rictor phosphorylation in 3T3-L1 adipocytes; format: cell-based, mouse
Procedure: Following tissue preparation and SDS-PAGE, membranes were incubated with a polyclonal antibody against Akt (Cell Signaling Technology), or Rictor (Cell Signaling); Anti-PGC1 alpha antibody (abcam); a monoclonal antibody against Phospho-Akt Ser473 (Cell Signaling), Phospho-Rictor Thr1135 (Cell Signaling), GAPDH (Cell Signaling), or Mfge8 (R&D Systems). For evaluation of total AKT and total Rictor, membranes that been blotted for phospho-AKT and phospho-Rictor were stripped and reprobed. Plasma membrane and post-plasma membrane fractions were isolated as previously described (Nishiumi, S. & Ashida, H., Biosci Biotechnol Biochem 71, 2343-2346 (2007)).

3T3-L1 adipocytes [2] = assay: Glucose uptake assay (2-NBDG) in 3T3-L1 adipocytes; format: cell-based, mouse
Procedure: (§1) Uptake of […] by primary cells and cell lines was assessed using the fluorescent D-glucose analog 2-[N-(7-nitrobenz-2-oxa-1,3-diazol-4-yl)amino]-2-deoxy-D-glucose (2-NBDG) (Invitrogen). 2-NBDG has been successfully used as an alternative to 2-deoxyglucose in the measurement of glucose uptake in multiple cell types. Cells were plated in triplicate in 96-well plates at a concentration of 25,000 cells per well in 100 μl of DMEM/10% FCS. Plates were centrifuged at 1000 rpm for 4 minutes and incubated at 37° C. for 4-5 hours. Cells were then serum deprived for 1 hour before treatment with recombinant proteins for 20 minutes followed by the addition of 2-NBDG (100 μM) for 10 min at 37° C. in a humidified atmosphere of 5% CO2. Reaction was stopped by adding a twofold volume of ice-cold PBS and the wells were washed again with ice-cold PBS three times. The fluorescent signal before (autofluorescence) and after adding 100 μM 2-NBDG was measured using fluorescent plate reader at 37° C. (Molecular Device using the 485 nmex and 520 nmemiss filter set). The net increase in fluorescence was normalized to the lowest signal (0 cells/well). […]

primary WT adipocytes = assay: Glucose uptake assay (2-NBDG) in primary WT adipocytes; format: cell-based, mouse; settings: insulin 1 μM
Procedure: as §1

[3] = Blood glucose after IP insulin injection; format: in vivo, mouse; settings: mice, rMfge8 co-administered with insulin, antibodies as pretreatment 15 min before insulin
Procedure: Mice were fasted for 4 hours after which they were injected with 1.5 U/kg of insulin IP. Blood was collected from the tail vein immediately before injection and then again after 15, 30, 60, and 90 minutes for evaluation of blood glucose.
In experiments using RGE or Mfge8 construct: mice received 50 μg/kg body weight of recombinant protein. In experiments using function-blocking antibodies: 6-8 week-old mice were fasted for 4 hours and then each mouse received 0.5 μg antibody (integrins αv (clone RMV-7) and β5 (clone ALULA)) per gram body weight in total volume of 200 μl, 15 minutes later each mouse received an insulin injection (1.5 U/kg, intraperitoneal injection (IP)). Blood glucose levels were measured by sampling from the tail vein of mice from 15 minutes after insulin administered.

PTEN = PTEN activity assay (conversion of PIP3 to PIP2) in freshly isolated antrum; format: biochemical, mouse; settings: 10 μg/ml
Procedure: In FIG. 14A, the antral rings were treated for 15 min with PI3K inhibitor wortmannin (Wort.100 nm) followed by assessment of contractile force in response to MCh. N=3-4. ***P<0.0001. […] Western blot of antral tissue were treated for 30 minutes with or without rMfge8. […] Western blot of antrum were treated for 30 minutes with wortmannin (100 ng/ml) or Mfge8 and then with MCh for 15 minutes prior to quantifying active RhoA using a GST pull-down. […] PTEN activity assay measured the conversion of PIP3 to PIP2 in freshly isolated antrum with and without the rMfge8 or RGE construct (10 μg/ml) n=3-5. *P<0.05, **P<0.01, ***P<0.001.

B1: rMfge8: recombinant Milk Fat Globule Epidermal Growth Factor 8, an integrin ligand, expressed in High 5 cells (protein)
chain: ASGDFCDSSLCLNGGTCLTGQDNDIYCLCPEGFTGLVCNETERGPCSPNPCYNDAKCLVTLDTQRGDIFTEYICQCPVGYSGIHCETETNYYNLDGEYMFTTAVPNTAVPTPAPTPDLSNNLASRCSTQLGMEGGAIADSQISASSVYMGFMGLQRWGPELARLYRTGIVNAWTASNYDSKPWIQVNLLRKMRVSGVMTQGASRAGRAEYLKTFKVAYSLDGRKFEFIQDESGGDKEFLGNLDNNSLKVNMFNPTLEAQYIKLYPVSCHRGCTLRFELLGCELHGCSEPLGLKNNTIPDSQMSASSSYKTWNLRAFGWYPHLGRLDNQGKINAWTAQSNSAKEWLQVDLGTQRQVTGIITQGARDFGHIQYVASYKVAHSDDGVQWTVYEEQGSSKVFQGNLDNNSHKKNIFEKPFMARYVRVLPVSWHNRITLRLELLGC
fatty acid uptake (BODIPY fatty acid analog) (3T3-L1 adipocytes [1]): significantly increased
phosphorylation of Rictor at threonine 1135 (Rictor at threonine 1135): phosphorylated
effect of insulin on glucose uptake (3T3-L1 adipocytes [2]; insulin 1 μM): significantly inhibited
baseline glucose uptake (3T3-L1 adipocytes [2]; without insulin): no difference; also recorded: no effect
effect of insulin on glucose uptake (primary WT adipocytes): significantly inhibited
serum glucose levels after insulin injection as compared with insulin injection alone [3]: significantly higher
PTEN activity (PTEN): modulates

— patent US10005838B2, “Milk fat globule epidermal growth factor 8 regulates fatty acid uptake” (REGENTS OF THE UNIVERSITY OF CALIFORNIA, priority 2013, dated 2018)
